Data published in paper PMC7617805, “Mechanism of DNA capture by the MukBEF SMC complex and its inhibition by a viral DNA mimic” (Cell, 2025).

B1: P. thracensis MukB, wild type, as subunit of the MukBEF complex used for cryo-EM (natural protein, Photorhabdus thracensis, UniProt A0A0F7LRY2 1-1482, looked up)
chain: MIERGKFRSLTLVNWNGFFARTFDLDELVTTLSGGNGAGKSTTMAAFVTALIPDLTLLHFRNTTEAGATSGSRDKGLHGKLRAGVCYSTLDVINSRHQRVVVGVRLQQVAGRDRKVDIKPFMIQGLPTAIQPTQLLTENVGERQARVLPLNELKDRLDEMEGVQFKQFNSITDYHAQMFDLGVIPKRLRSASDRSKFYRLIEASLYGGISSAITRSLRDYLLPENSGVRKAFQDMEAALRENRITLEAIRVTQSDRDLFKHLITEATSYVSADYMRHANERRTHLDEALALRGELFGSHKQLATEQYRHVEMARELAEQSGASSDLETDHQAASDHLNLVQTAMRQQEKIDRYQVDLEELSYRLEEQTDVVEEAGELQAEYEARTEATEQEVDELKSQLADYQQALDVQQTRAIQYQQALQALERARELCRLPDLSVDNAEEWLETFQAKEQQATEALLALEQKLSVADAAHNQFEQAYQLVKNIVGETSRSEAWQSARELLRDWPSQRHLADRVQPLRMRLSELEQRLNNQQNAERLLSEFCKRQGRQYQAEDLEALQNELEARQEALSLSVNEGGERRMEMRQELEQLKQKIQSLTARAPVWLAAQDTLNQLCEQSGETLASSNDVTEYMQQLLEREREATVERDEVAAQKRELEKQIERLSQPSGAEDSRMIALAERFGGVLLSEIYDDITIDDAPYFSALYGPARHGIVVPDLSLVRPHLETLEDCPEDLYLIEGDPQSFDDSVFNAEEQTNAVLVKSSDRQWRYSRYPELPLFGRAARENRLEALNLERDALAERYATLSFDVQKIQRAHQAFSQFVGKHLSVAFDTDPEAEIRELRQRHTELEREVSRFEDQTQQQRQQYAQAKESLTTLNRLIPQVTLLLDETLIDRVEEVREEMDEAQEAARFLQQHGSALTKLEPMVAVLQSDPQQHEQLQQDYETAKHSQHQAKQQAFALVEIVQRRVHFSYSDSAGMLSENADLNDKLRQRLEHAESDRSRAREQLRQQQAQYSQFNQVLASLKSSYETKQDMLKELLQEMKDIGVQADANAEMRARERRDRLHEALSVNRSRVNQLEKQIAFCEAEMENVQKKLRKLERDYYQIREQVVSAKAGWCAVMRMVKDNGVERRLHRRELAYMEGGALRSMSDKALGALRLAVADNEHLRDALRLSEDPKRPERKVQFFIAVYQHLRERIRQDIIRTDDPVDAIEQMEIELARLTEELTAREQKLAISSKSVANIIRKTIQREQNRIRMLNQGLQAVSFGQVRGVRLNVNVRESHAILLDVLSEQQEQHQDLFNSQRLTFSEAMAKLYQRLNPQVDMGQRLPQTIGEELLDYRNYLELDVEVNRGSDGWLKAESGALSTGEAIGTGMSILVMVVQSWEEESRRLRGKDISPCRLLFLDEAARLDAKSIATLFELCERLQMQLIIAAPENISPEKGTTYKLVRKVFKNHEHVHVVGLRGFGQDAPATQLISDVTA
notes: MukB of Photorhabdus thracensis; the MukB chain of m14; also called κ-MukB; ν-MukB; source: E. coli BL21-Gold(DE3), polycistronic pFB403, purified as the MukBEF complex; not shown: His6-SUMO, N-terminal, cleaved
B2: T7 gp5.9 (untagged after cleavage, from insect cells) (natural protein, bacteriophage T7)
chain: MSRDLVTIPRDVWNDIQGYIDSLERENDSLKNQLMEADEYVAELEEKLNGTS
notes: gp5.9 of bacteriophage T7; Used as 'gp5.9 dimers' in SEC; source: Hi5 insect cells, purified (Talon, 3C cleavage, HisTrap flowthrough, MonoQ)

Assays:
[1] = molecular target: the molecule itself; assay: cryo-EM structure; wild-type P. thracensis MukBEF dimers 150 nM with nicked plasmid pFB526, 5 mM ATP, 10 mM MgCl2, optionally Na3VO4 or BeSO4/NaF; datasets pooled; open-gate and DNA capture states
[2] = molecular target: the molecule itself; assay: cryo-EM structure; E. coli MukEF 1 uM with 4 uM gp5.9 in 20 mM Tris, 200 mM NaCl, 0.5 mM TCEP, 0.05 % β-octyl glucoside, pH 7.4; focused refinement on gp5.9/MukE

Protein | binding result [1] | stoichiometry N [2]
B1 | binds | –
B2 | – | 2
